In patent US20180134765A1 (AVIDBIOTICS, published 2018):

What was measured:
FGFR3 (plate-coated) [1] = biological target: T1, FGFR3 (plate-coated) (UniProt P22607 23-375); test: ELISA: FGFR3 coated at 2 ug/ml, protein titrated, bound protein detected with NKG2D-Fc and anti-Fc-HRP
T1 construct: also called Fibroblast Growth Factor Receptor 3
T1 sequence (looked up): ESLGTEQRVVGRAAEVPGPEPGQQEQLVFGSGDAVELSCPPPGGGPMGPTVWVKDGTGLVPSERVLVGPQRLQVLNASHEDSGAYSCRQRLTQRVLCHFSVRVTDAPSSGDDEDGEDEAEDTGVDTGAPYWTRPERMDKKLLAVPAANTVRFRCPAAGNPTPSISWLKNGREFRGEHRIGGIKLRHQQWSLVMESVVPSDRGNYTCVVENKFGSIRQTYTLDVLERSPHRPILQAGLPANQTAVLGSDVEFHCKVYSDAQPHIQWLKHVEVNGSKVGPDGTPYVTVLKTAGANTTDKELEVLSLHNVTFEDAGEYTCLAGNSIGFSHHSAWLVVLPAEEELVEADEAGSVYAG

FGFR3 (plate-coated) [2] = biological target: T1, FGFR3 (plate-coated); test: ELISA on FGFR3-coated wells after 1 h at 80 C and 1 h at room temperature
FGFR3 (plate-coated) [3] = biological target: T1, FGFR3 (plate-coated); test: ELISA on FGFR3-coated wells after 1 h at 70 C and 1 h at room temperature
human NKG2D-Fc [4] = biological target: T2, human NKG2D-Fc (human, UniProt P26718 78-216, limits assumed); test: phage ELISA: phage-displayed ULBP2 α1-α2 variant titrated against NKG2D (the legend gives no form; Example 5 selected on human NKG2D-Fc)
T2 construct: also called natural NKG2D-Fc; not shown: Fc part
T2 sequence (looked up): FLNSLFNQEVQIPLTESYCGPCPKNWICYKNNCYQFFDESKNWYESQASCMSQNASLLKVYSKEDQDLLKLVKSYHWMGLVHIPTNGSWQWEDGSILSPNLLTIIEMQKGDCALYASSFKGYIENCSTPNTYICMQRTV

human NKG2D-Fc [5] = biological target: T2, human NKG2D-Fc; test: ELISA: protein captured on FGFR3 detected with NKG2D-Fc
FGFR3 (plate-coated) [6] = biological target: T1, FGFR3 (plate-coated); test: ELISA: FGFR3 coated at 2 ug/ml, protein titrated, bound protein detected with NKG2D-Fc and anti-Fc-HRP; remark: listed apart in the source
human NKG2D-Fc [7] = biological target: T2, human NKG2D-Fc; test: phage ELISA: phage-displayed ULBP3 α1-α2 variant titrated against NKG2D (the legend gives no form; Example 5 selected on human NKG2D-Fc)
ULBP2-Fc = biological target: T3, ULBP2-Fc (UniProt Q9BZM5 26-217); test: ELISA: ligand-Fc coated at 2 ug/ml, biotinylated NKG2D Y152A, Y199A ectodomain titrated, streptavidin-HRP
T3 construct: Bought, R&D Systems; not shown: Fc part of the bought reagent
T3 sequence (looked up): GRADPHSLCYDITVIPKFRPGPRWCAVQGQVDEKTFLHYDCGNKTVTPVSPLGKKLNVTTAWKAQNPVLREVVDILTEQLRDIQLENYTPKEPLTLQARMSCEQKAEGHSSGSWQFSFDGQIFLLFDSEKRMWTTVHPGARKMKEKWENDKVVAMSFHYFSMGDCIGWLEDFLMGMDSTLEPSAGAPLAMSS

ULBP4-Fc = biological target: T4, ULBP4-Fc (UniProt Q8TD07 31-225); test: as above
T4 construct: Bought, R&D Systems; not shown: Fc part of the bought reagent
T4 sequence (looked up): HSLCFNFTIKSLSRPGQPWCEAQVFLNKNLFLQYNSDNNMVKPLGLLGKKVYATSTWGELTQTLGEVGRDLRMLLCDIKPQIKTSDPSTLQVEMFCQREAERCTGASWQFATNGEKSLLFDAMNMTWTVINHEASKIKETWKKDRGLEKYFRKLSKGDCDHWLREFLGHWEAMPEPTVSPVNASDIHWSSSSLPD

ULBP1-Fc = biological target: T5, ULBP1-Fc (UniProt Q9BZM6 26-216); test: as above
T5 construct: Bought, R&D Systems; not shown: Fc part of the bought reagent
T5 sequence (looked up): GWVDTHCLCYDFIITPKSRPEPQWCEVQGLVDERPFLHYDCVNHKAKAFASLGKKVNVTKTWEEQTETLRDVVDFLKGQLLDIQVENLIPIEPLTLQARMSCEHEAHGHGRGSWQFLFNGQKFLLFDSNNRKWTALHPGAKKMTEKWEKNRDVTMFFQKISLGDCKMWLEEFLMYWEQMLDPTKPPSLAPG

MICwed-Fc = test: as above
ULBP3-Fc = biological target: T6, ULBP3-Fc (UniProt Q9BZM4 30-217); test: as above
T6 construct: Bought, R&D Systems; not shown: Fc part of the bought reagent
T6 sequence (looked up): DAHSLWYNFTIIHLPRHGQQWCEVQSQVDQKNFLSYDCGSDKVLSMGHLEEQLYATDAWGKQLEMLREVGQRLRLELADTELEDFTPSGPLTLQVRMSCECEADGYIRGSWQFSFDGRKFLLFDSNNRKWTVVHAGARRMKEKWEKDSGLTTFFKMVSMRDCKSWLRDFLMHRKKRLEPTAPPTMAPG

MICv25-Fc = biological target: T7, MICv25-Fc; test: as above
T7 construct: also called MIC-v25 α1-α2 domain ligand

MICA-Fc = biological target: T8, MICA-Fc; test: as above
T8 construct: also called natural α1-α2-α3-Fc fusion
T8 chain: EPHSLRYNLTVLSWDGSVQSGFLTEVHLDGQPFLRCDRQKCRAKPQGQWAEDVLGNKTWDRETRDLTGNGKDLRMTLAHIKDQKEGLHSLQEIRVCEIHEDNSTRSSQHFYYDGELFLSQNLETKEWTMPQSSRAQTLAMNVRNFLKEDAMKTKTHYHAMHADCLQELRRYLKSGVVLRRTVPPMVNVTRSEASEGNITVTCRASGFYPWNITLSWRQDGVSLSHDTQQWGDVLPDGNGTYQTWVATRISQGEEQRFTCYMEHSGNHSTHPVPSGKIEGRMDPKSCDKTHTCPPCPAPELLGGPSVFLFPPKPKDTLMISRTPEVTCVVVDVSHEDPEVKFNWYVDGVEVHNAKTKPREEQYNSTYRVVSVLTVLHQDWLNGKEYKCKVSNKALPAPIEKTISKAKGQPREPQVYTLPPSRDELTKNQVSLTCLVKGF

MICB-Fc = biological target: T9, MICB-Fc (UniProt Q29980 23-298); test: as above
T9 construct: Bought, R&D Systems; not shown: Fc part of the bought reagent
T9 sequence (looked up): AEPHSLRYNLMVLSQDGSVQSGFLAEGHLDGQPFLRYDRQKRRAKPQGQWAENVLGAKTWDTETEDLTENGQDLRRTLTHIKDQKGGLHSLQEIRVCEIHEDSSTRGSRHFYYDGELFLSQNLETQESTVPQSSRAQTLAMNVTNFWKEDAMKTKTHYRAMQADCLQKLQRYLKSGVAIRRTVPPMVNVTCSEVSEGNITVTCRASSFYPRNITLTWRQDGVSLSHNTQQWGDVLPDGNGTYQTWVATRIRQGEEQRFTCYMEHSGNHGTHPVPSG

B1: MICA-α3-iFv.2 (designed binder)
chain: EPHSLRYNLTVLSWDGSVQSGFLTEVHLDGQPFLRCDRQKCRAKPQGQWAEDVLGNKTWDRETRDLTGNGKDLRMTLAHIKDQKEGLHSLQEIRVCEIHEDNSTRSSQHFYYDGELFLSQNLETKEWTMPQSSRAQTLAMNVRNFLKEDAMKTKTHYHAMHADCLQELRRYLKSGVVLRRTVPPMVQVTRSEASGGSGDRVTITCRASQDVSTAVAWYQQKPGKAPKLLIYSASFLYSGVPSRFSGSGSGTDFTLTISSLQPEDFATYYCQQSYTTPPTFGQGTKVEIKGGSSRSSSSGGGGSGGGGEVQLVESGGGLVQPGGSLRLSCAASGFTFTSTGISWVRQAPGKGLEWVGRIYPTNGSTNYADSVKGRFTISADTSKNTAYLQMNSLRAEDTAVYYCARTYGIYDLYVDYTEYVMDYWGQGTLVTVSSGGSSRSSSSGGGGSGGGGDIQMTQSPSSLSASGGSGQITVTCRASGFYPWNITLSWRQDGVSLSHDTQQWGDVLPDGQGTYQTWVATRISQGEEQRFTCYMEHSGQHSTHPVPSGKGSHHHHHH
notes: His-tagged, monomeric, made in insect cells; also called sMICA-α3-iFv.2
FGFR3 (plate-coated) [1]
  EC50 (read off the curve): ~2 nM
FGFR3 (plate-coated) [2]
  EC50 (read off the curve): ~5 nM
FGFR3 (plate-coated) [3]
  EC50 (read off the curve): ~5 nM

B2: V151D (ligand)
α1-α2 domain, fused to pIII of M13 phage: AAEPHSLSYDITVIPKFRPGPRWCAVQGQVDEKTFLHYDCGNKTVTPVSPLGKKLNVTTAWKAQNPVLREVVDILTEQLRDIQLENYTPKEPLTLQARMSCEQKAEGHSSGSWQFSFDGQIFLLFDSEKRMWTTVHPGARKMKEKWENDKDVAMSFHYFSMGDCIGWLEDFLMGMDSTLEPSAGAP
Human NKG2D-Fc [4]
  EC50 (read off the curve): ~0.01 OD268 (phage)

B3: ULBP2-α3-iFv.2 (designed binder)
chain: EPHSLCYDITVIPKFRPGPRWCAVQGQVDEKTFLHYDCGNKTVTPVSPLGKKLNVTTAWKAQNPVLREVVDILTEQLRDIQLENYTPKEPLTLQARMSCEQKAEGHSSGSWQFSFDGQIFLLFDSEKRMWTTVHPGARKMKEKWENDKVVAMSFHYFSMGDCIGWLEDFLMGMDSTLEPSAGAPPMVQVTRSEASGGSGDRVTITCRASQDVSTAVAWYQQKPGKAPKLLIYSASFLYSGVPSRFSGSGSGTDFTLTISSLQPEDFATYYCQQSYTTPPTFGQGTKVEIKGGSSRSSSSGGGGSGGGGEVQLVESGGGLVQPGGSLRLSCAASGFTFTSTGISWVRQAPGKGLEWVGRIYPTNGSTNYADSVKGRFTISADTSKNTAYLQMNSLRAEDTAVYYCARTYGIYDLYVDYTEYVMDYWGQGTLVTVSSGGSSRSSSSGGGGSGGGGDIQMTQSPSSLSASGGSGQITVTCRASGFYPWNITLSWRQDGVSLSHDTQQWGDVLPDGQGTYQTWVATRISQGEEQRFTCYMEHSGQHSTHPVPSGKGSHHHHHH
notes: His-tagged, monomeric, insect cells; also called NKG2DL-α3-iFv.2 (ULBP2)
Human NKG2D-Fc [5]
  binding result: binds
FGFR3 (plate-coated) [6]
  EC50 (read off the curve): ~2 nM

B4: ULBP3 R162G α1-α2 domain (phage-displayed library parent) (ligand)
chain: AAEPHSLWYNFTIIHLPRHGQQWCEVQSQVDQKNFLSYDCGSDKVLSMGHLEEQLYATDAWGKQLEMLREVGQRLRLELADTELEDFTPSGPLTLQVRMSCESEADGYIRGSWQFSFDGRKFLLFDSNNRKWTVVHAGARRMKEKWEKDSGLTTFFKMVSMGDCKSWLRDFLMHRKKRLEPTAP
Human NKG2D-Fc [7]
  binding result: binds

B5: Y152A plus Y199A NKG2D ectodomain (receptor)
chain: EPHHHHHHGLNDIFEAQKIEWHENSLFNQEVQIPLTESYCGPCPKNWICYKNNCYQFFDESKNWYESQASCMSQNASLLKVYSKEDQDLLKLVKSAHWMGLVHIPTNGSWQWEDGSILSPNLLTIIEMQKGDCALYASSFKGAIENCSTPNTYICMQRTV
modifications: biotin on the avitag sequence (BirA)
notes: Expressed with His-avitag; also called non-natural NKG2D double mutant Y152A and Y199A
ULBP2-Fc
  binding result: no binding (tested: 2000 nM)
ULBP4-Fc
  binding result: no binding (tested: 2000 nM)
ULBP1-Fc
  binding result: no binding (tested: 2000 nM)
MICwed-Fc
  binding result: no binding (tested: 2000 nM)
ULBP3-Fc
  binding result: no binding (tested: 2000 nM)
MICv25-Fc
  binding result: no binding (tested: 2000 nM)
MICA-Fc
  binding result: no binding (tested: 2000 nM)
MICB-Fc
  binding result: no binding (tested: 2000 nM)
